Assay results reported in patent US20140341888A1 (CORNING, published 2014).
Each block holds one binder with its values, some of them ahead of it.

Experiments:
[1] = molecular target: T1, recombinant soluble hTNFSF13b (native) (human, UniProt Q9Y275 134-285); assay: SPR (BIAcore 2000), antibody captured by anti-human IgG Fc, hTNFSF13b from 50 nM, Langmuir 1:1 model
T1 construct: also called huTNFSF13b; Human TNFSF13b

EGFR-AP fusion protein = molecular target: T2, EGFR-AP fusion protein (UniProt P00533 25-645); assay: SPR (BIAcore), EGFR-AP immobilized, antibody 1.5 nM to 100 nM
T2 construct: Immobilized on the BIAcore sensor chip; construct not described

Kd [1]: 38 µM
B1: 4A5-3.1.1-B4 (antibody, V domains shown)
VH: QVQLQQWGAGLLKPSETLSLTCAVYGGSFSGYYWSWIRQPPGKGLEWIGEINHSGSTNYNPSLKSRVTISVDTSKNQFSLKLSSVTAADTAVYYCARGYYDILTGYYYYFDYWGQGTLVTVSS
VL: EIVLTQSPATLSLSPGERATLSCRASQSVSRYLAWYQQKPGQAPRLLIYDASNRATGIPARFSGSGSGTDSTLTISSLEPEDFAVYYCQQRSNWPRTFGQGTKVEIKR

Kd (EGFR-AP fusion protein): 0.00032 µM
koff (EGFR-AP fusion protein): 0.00058 s⁻¹
kon (EGFR-AP fusion protein): 1.86e+06 M⁻¹ s⁻¹
B2: IMC-11F8 IgG (antibody, V domains shown)
VH: QVQLQESGPGLVKPSQTLSLTCTVSGGSISSGDYYWSWIRQPPGKGLEWIGYIYYSGSTDYNPSLKSRVTMSVDTSKNQFSLKVNSVTAADTAVYYCARVSIFGVGTFDYWGQGTLVTVSS
VL: EIVMTQSPATLSLSPGERATLSCRASQSVSSYLAWYQQKPGQAPRLLIYDASNRATGIPARFSGSGSGTDFTLTISSLEPEDFAVYYCHQYGSTPLTFGGGTKAEIK
